Measured values reported in patent US5162203A, “Methods of measuring isozymes and isozyme classes of alcohol dehydrogenase” (President and Fellows of Harvard College, priority 1989, dated 1992).
“And” between values parts separate entries of the source, which are not always exact repeats. Equal values may be shown once. Blank lines part the entries; values can stand above or below the molecule they belong to.

Tests used:
[1] = Specific activity of purified ADH isozymes in ethanol oxidation assay; assay type: biochemical
Description: The isozymes used as primary standards were homogeneous based on SDS-polyacrylamide, urea-polyacrylamide and starch gel electrophoresis as described above. […] Using ethanol as substrate in a conventional ADH assay as described in part 8 of this Example, the specific activity of each purified ADH isozyme was established by monitoring NADH production by the change in absorbance at 340 nm on a Cary 219 spectrophotometer calibrated with potassium chromate absorbance standards (Fisher Chem. Co., Medford, MA) The activity of the purified ADH Class I isozymes were also assayed according to methods of the present invention (Examples 1 (part 8), 2 and 4).
A modification of the procedure of Ditlow et al., 1984, Biochemistry 23:6363-68, was used to purify Class II ADH from human livers proceeding from the preparation of Class I isozymes as described in subpart (a) above. The effluent of the CapGapp column obtained during the loading and binding of Class I was concentrated to about 200 ml in an Amicon concentrator with a PM.30 membrane and dialyzed 16 hours against 10 liters of 10 mM potassium phosphate, 0.1 mM DTT, pH 7.4 containing 10 μM octanal. The sample was applied to a column (3×5 cm) of agarose-AMP affinity resin at a flow rate of 0.5 ml/minute followed by washing of the column with 200 ml of the dialysis buffer. The bound enzyme was eluted with 150 ml of the dialysis buffer with a gradient of NADH from 0 to 66 μg/ml.
Standard assays for ethanol oxidation activity (Dalziel, 1957, Acta Chem Scand 11:1706-23) were carried out on a Cary 219 spectrophotometer interfaced with an Apple IIe microcomputer, using software provided by Varian Associates. The reaction mixture contained 2.5 mM NAD^+ in 0.1M glycine-NaOH buffer. pH 10.0, and 33 mM or 0.2M ethanol for Class I and Class II ADH, respectively.

[2] = Effect of storage conditions and time on ADH activity in serum; assay type: physicochemical, human
Description: Fresh serum samples were obtained from the Clinical Chemistry Laboratory at Brigham and Women's Hospital, Boston, Mass. All serum measurements reported herein were performed within 5 hours of phlebotomy unless otherwise indicated On storage there is considerable variation in the ADH activity of serum samples from the same and different patients. FIGS. 5A and 5B show the effect of storage at 4° C. (closed circles) and room temperature (closed squares) in a typical serum sample, using substrate IA (FIG. 5A) and substrate IIA (FIG. 5B) as measured by the four-assay procedure of Example 4.

[3] = Reconstitution of purified ADH in inactive diluted human serum, substrate IIA; assay type: biochemical; details: Class II, 50-fold diluted serum, listed as II
Description: The ADH isozymes employed were electrophoretically homogeneous with symmetrical HPLC elution profiles and had the highest constant specific activity. Their activity was established both by the standard A340 assay using ethanol and using substrates IA and IIA under conditions described herein, but in the absence of serum.
After the residual background reaction was recorded, a purified ADH isozyme prepared as described in Example 1 was then added and the rate measured as described in part 8 of Example 1. All measurements were made in triplicate.

[4] = biological target: ADH in human serum (Class II) (Homo sapiens, UniProt P08319); test: Fluorometric measurement of serum ADH activity with substrate IIA; assay type: biochemical; details: Class II, substrate IIA
Description: All reaction mixtures (3 ml total volume) were prepared directly in 1 cm pathlength, 4 ml fluorometric cuvettes by adding 150 μl of the 300 μM substrate solution (e.g substrate IA or IIA) 100 μl of the 1 mM NADH solution (prepared as in part 5 above) and 2.69 ml of assay buffer (0.1M phosphate, pH 7.6). After thermal equilibration (25° C.) for 5 minutes, 60 μl of isozyme sample (either serum or purified ADH isozymes) was added to the cuvette.
The linear increase of fluorescence was then recorded for 1-10 minutes, until 0.03-1 μM of substrate was consumed. Larger substrate consumption was not found to be desirable (described in subpart (c) below). […] The added product fluorescence intensity was then measured Fluorescence measurements were optimized for samples with low activity (<1 nM/minute). […] Rates measured in the presence of the 0.2 mM ADH inhibitors. […]
The rates of aldehyde reduction, determined as initial velocities (V) and expressed in units of nM/minute, were calculated according to: [formula] where the quantity in parentheses is the slope of the linear fluorescence increase calculated from the quantities Ft and FO, the fluorescence at time t and at the beginning of the reaction, respectively. Cst is the concentration of the product used as a standard added to the cuvette after the initial rate had been measured and Fst is the fluorescence intensity of the added product […]

B1: γ1γ1: Class I human ADH isozyme, γ1 homodimer (protein, UniProt P00326 2-375, looked up)
Alcohol dehydrogenase 1C: STAGKVIKCKAAVLWELKKPFSIEEVEVAPPKAHEVRIKMVAAGICRSDEHVVSGNLVTPLPVILGHEAAGIVESVGEGVTTVKPGDKVIPLFTPQCGKCRICKNPESNYCLKNDLGNPRGTLQDGTRRFTCSGKPIHHFVGVSTFSQYTVVDENAVAKIDAASPLEKVCLIGCGFSTGYGSAVKVAKVTPGSTCAVFGLGGVGLSVVMGCKAAGAARIIAVDINKDKFAKAKELGATECINPQDYKKPIQEVLKEMTDGGVDFSFEVIGRLDTMMASLLCCHEACGTSVIVGVPPDSQNLSINPMLLLTGRTWKGAIFGGFKSKESVPKLVADFMAKKFSLDALITNILPFEKINEGFDLLRSGKSIRTVLTF
modifications: homodimer
notes: Class I human ADH isozyme, γ1 homodimer
- specific activity ([1]; ethanol oxidation, pH 10): 4.4 U/mg

- limit of detection as isozyme concentration [4]: 0.17 nM
B2: Class II ADH: human liver Class II alcohol dehydrogenase (protein, UniProt P08319 1-380, looked up)
All-trans-retinol …: MGTKGKVIKCKAAIAWEAGKPLCIEEVEVAPPKAHEVRIQIIATSLCHTDATVIDSKFEGLAFPVIVGHEAAGIVESIGPGVTNVKPGDKVIPLYAPLCRKCKFCLSPLTNLCGKISNLKSPASDQQLMEDKTSRFTCKGKPVYHFFGTSTFSQYTVVSDINLAKIDDDANLERVCLLGCGFSTGYGAAINNAKVTPGSTCAVFGLGGVGLSAVMGCKAAGASRIIGIDINSEKFVKAKALGATDCLNPRDLHKPIQEVIIELTKGGVDFALDCAGGSETMKAALDCTTAGWGSCTFIGVAAGSKGLTIFPEELIIGRTINGTFFGGWKSVDSIPKLVTDYKNKKFNLDALVTHTLPFDKISEAFDLMNQGKSVRTILIF
- specific activity ([1]; purified Class II ADH): 1.5 U/mg
- Average Activity Retained ([2]; 4 °C, 2 days): 55%
- Average Activity Retained ([2]; 23 °C, 1 day): 66%
- Average Activity Retained ([2]; 23 °C, 2 days): 51%
- stability of activity in serum ([2]; -70° C.): at least one month
- Average Activity Retained ([2]; -70 °C, 30 days): 100%
- half-life of ADH activity in sera ([2]; room temperature): a few hours to >3 days
- Recovery [3]: 82.0% and 83.4% and 85.9% and 81.3%

B3: β1 β1: Class I human ADH isozyme, β1 homodimer (protein, UniProt P00325 2-375, looked up)
All-trans-retinol …: STAGKVIKCKAAVLWEVKKPFSIEDVEVAPPKAYEVRIKMVAVGICHTDDHVVSGNLVTPLPVILGHEAAGIVESVGEGVTTVKPGDKVIPLFTPQCGKCRVCKNPESNYCLKNDLGNPRGTLQDGTRRFTCRGKPIHHFLGTSTFSQYTVVDENAVAKIDAASPLEKVCLIGCGFSTGYGSAVNVAKVTPGSTCAVFGLGGVGLSAVMGCKAAGAARIIAVDINKDKFAKAKELGATECINPQDYKKPIQEVLKEMTDGGVDFSFEVIGRLDTMMASLLCCHEACGTSVIVGVPPASQNLSINPMLLLTGRTWKGAVYGGFKSKEGIPKLVADFMAKKFSLDALITHVLPFEKINEGFDLLHSGKSIRTVLTF
modifications: homodimer
notes: Class I human ADH isozyme, β1 homodimer
- specific activity ([1]; ethanol oxidation, pH 10): 0.42 U/mg
